The nature of this data set: soluble on expression in E. coli; label from the status in PepcDB or PDB records.
With “MGSDKIHHHHHHMSRLVVKNLTKIFSLGFFSKRRIEAVKNVSFEVKEKEIVSLVGESGSGKTTTAKMILRLLPPTSGEIYFEGKDIWKDIKDRESLVEFRRKVHAVFQDPFASYNPFYPVERTLWQAISLLENKPSNKKEALELIKESLFRVGIDPKDVLGKYPHQISGGQKQRIMIARCWILRPLLIVADEPTSMIDASSRGGIIKLLEELREEQGTSIIFITHDLGLAYYVSDNIFVMKNGEIVERGHPDKVVLEPTHEYTKLLVGSIPKLYRKLEDL”, the “soluble on expression in E. coli” value was “not soluble”.

Turning to “MSLGDLPLGWHKLHLKSNERSAECGLIITPARLSTADKYLDSPRSGVMAQIYSVRSTLSWGMGDFNDLGNLASVVAQDGADFLLINPMHAAEPLPPTEDSPYLPTTRRFINPIYIRVEDIPEFNQLEIDLRDDIAEMAAEFRERNLTSDIIERNDVYAAKLQVLRAIFEMPRSSEREANFVSFVQREGQGLIDFATWCADRETAQSESVHGTEPDRDELTMFYMWLQWLCDEQLAAAQKRAVDAGMSIGIMADLAVGVHPGGADAQNLSHVLAPDASVGAPPDGYNQQGQDWSQPPWHPVRLAEEGYIPWRNLLRTVLRHSGGIRVDHVLGLFRLFVMPRMQSPATGTYIRFDHNALVGILALEAELAGAVVIGEDLGTFEPWVQDALAQRGIMGTSILWFEHSPSQPGPRRQEEYRPLALTTVTTHDLPPTAGYLEGEHIALRERLGVLNTDPAAELAEDLQWQAEILDVAASANALPAREYVGLERDQRGELAELLEGLHTFVAKTPSALTCVCLVDMVGEKRAQNQPGTTRDMYPNWCIPLCDSEGNSVLIESLRENELYHRVAKASKRDEGHHHHHH”, the “soluble on expression in E. coli” value is given as “not soluble”.

On to “MSLDRVDWPHATFSTPVKRIFDTQTTLDFQSSLAIHRIKYHLHKYTTLISHCSDPDPHATASSIAMVNGLMGVLDKLAHLIDETPPLPGPRRYGNLACREWHHKLDERLPQWLQEMLPSEYHEVVPELQYYLGNSFGSSTRLDYGTGHELSFMATVAALDMLGMFPHHRGADVFLLFNKYYTIMRRLILTYTLEPAGSHGVWGLDDHFHLVYILGSSQWQLLDAQAPLQPREILDKSLVREYKDTNFYCQGINFINEVKMGPFEEHSPILYDIAVTVPRWSKVCKGLLKMYSVEVEKKFPVVQHFWFGTGFFPWVNIHHHHHH”, for which the “soluble on expression in E. coli” value is reported as “soluble”.

As to “GPGSMGRASKDKRDIYYRKAKEEGYRARSAYKLLQIHEEFNILDPAEIRTGAVDLCAAPGSWSQVLAQHFKMISANLTAASEGDSLPAQTPRVVAVDLQEMAPIDGVTLLQGDITSEVTAREIIRLLNAPTSTGVVRTDDEQQQPQPASSSFSSSAPSPALGASPRKADIVLCDGAPDVTGMHELDEYLQHHLLLAALHITTFVLRAGGCFLTKIFRGPNTAFLVAKSQLFFQQVRVVKPKSSRNASMESFLLCQGFRMPLGYVPRFVGAAAPAAASSATTGCSRGAASASAGCGSRVEADNEEGVKGERSETAIGSGGPLRASGFTPEAPLYCYDTTASFSHASDGGAAAAATVHDVAHHNQRTSCTLADGVLAPFLSCGDLSGFDADMCYDRDEDADVLEPVQPPLQAPYLAAAAASPSQLAGVADGRDTEADASQKKKIRVESPTAIAGRDSSTGGEEQQ”, the “soluble on expression in E. coli” value is “not soluble”.

Regarding “TQEDVVVTLSHQGYVKYQPLSEYEAQRRGGKGKSAARIKEEDFIDRLLVANTHDHILCFSSRGRVYSMKVYQLPEATRGARGRPIVNLLPLEQDERITAILPVTEFEEGVKVFMATANGTVKKTVLTEFNRLRTAGKVAIKLVDGDELIGVDLTSGEDEVMLFSAEGKVVRFKESSVRAMGCNTTGVRGIRLGEGDKVVSLIVPRGDGAILTATQNGYGKRTAVAEYPTKSRATKGVISIKVTERNGLVVGAVQVDDCDQIMMITDAGTLVRTRVSEISIVGRNTQGVILIRTAEDENVVGLQRVAE”, the “soluble on expression in E. coli” value is “soluble”.

As for “SNAKSEIGKYAPFFSLPNAKGEKITRSSDAFKQKSLLINFWASWNDSISQKQSNSELREIYKKYKKNKYIGMLGISLDVDKQQWKDAIKRDTLDWEQVCDFGGLNSEVAKQYSIYKIPANILLSSDGKILAKNLRGEELKKKIENIVEEA”, the “soluble on expression in E. coli” value is listed as “soluble”.

As for “MGETKADFRDMSRIPKVREGFYATNNQFQKAGPKGFVQVKVLENDNLYVRVDLPGVPDDAVRYRVDAVRQKVVFFSGETLNNGKEGVRQYSGTAGLGCDCCEITGVDAKMKDGVLRMILTRVKVVSKAQDNNNNKCTLTVPPFTGQSGIRLEDHPCLVSGRKGALIGVTKAGGGAHFAVDMPGVSPDDVEVYADEKEIRFKAEIKDVYEHDESGRTYLGSVQSPFPALISNNTIAWDAEFGVLRIAVIPPDDMTTINNKRNPIE”, the “soluble on expression in E. coli” value is “soluble”.

For “MLKLLIVDDAMFMRTMIKNIVKDSDFEVVAEAENGLEAVKKYDEVKPDIVTLDITMPEMDGLEALAQIMAKDPSAKVIMCSAMGQQGMVVDAIKKGAKDFIVKPFQADRVLEALEKAAK”, the “soluble on expression in E. coli” value was “not soluble”.

For “SNAENNQTTTTHSKVISHVFCTGTAKLGSVGPPIGLVDIGVSEVAYIFRVSLPGIEKNQDKIKCEIQREGRVCIQGVIPEIAIPSDTGCLYRMQVQQLCPPGPFSITFNLPGQVDPRLFSPNFRSDGIFEVVVVKLGVRIPTS”, the “soluble on expression in E. coli” value is reported as “soluble”.

Take “MSATAGRVVRAGQHAVRTVAPIKSNNSAEARMSVLAAYKEFQRLTPKFWWDFGLHDMPLGVFRAVIKKQFTKNGHLTDVRVVDRLVGETHQHMKSIRYAFYNPDHVRNYLFAENVEAKPKDFLSKFLNGKE”: the “soluble on expression in E. coli” value is on record as “not soluble”.

As to “MSLNPASPFATLTDRIDWQKVDGLVPAIVQDFQSSQVLMMGYMNPEALQKTLDTQQVTFFSRSKQRLWTKGETSGHVLQLKNIALDCDQDTLLVKVNPIGPTCHTGTVTCWDGDAQEESQMVWLHQLEQLLAERKNADPSSSYTASLYARGTKRIAQKVGEEGVEVALAATAGDKEELICESADLMYHLLVLLQEQGLAMNDVINKLKERHKEGHHHHHH”, the “soluble on expression in E. coli” value is recorded as “soluble”.

For the sequence “MSLISIVVLYYSRHGSTQALARQIARGVESVEGCQALLRTVAELDGTASNSDPYLSLDELKQCDGLALGSPVWFGNMAAPLKHFWDQTTPLWLSGALIDKPACVFTSSSTLHGGQETTQQSMMLPLLHHGMLILGIPYSEPALHTTQSGGTPYGASHVHQQKTLSSEEAELARQLGKRLAHVAKQLKGEGGSHHHHHH”, the “soluble on expression in E. coli” value is “soluble”.

With “MPSNPQQSSRATPDRPSGSDESVIVERIYKAVMEQRLAPKTKLSEARLCETFGVGRMRVRRALLLLSSQGIIELQSNRGAYVACPDTAEANEVFAARMLIEPPLVRQLAQSSGNIDLTILTEHIALEDAARERKERTEIIRLSGEFHTKLAQATGNKFIFRMMRELVTRTSLIVGLFGSSENASCPDDEHNNILKAIQSQDPEMAETLLISHLNHIQNGLDMDMRQVPQDDLAAILGSD”, the “soluble on expression in E. coli” value is “not soluble”.

Consider “MDISRRNFLKSTASFGAIASLGLPGYSLAAPSNDFRALICVYLAGGNDAINTILPLSDFHYNQYANVRGSLSVAKNTIIPIRLNAHDANNNAVPLGLHPKLSALAPLFQQGDANLVLNSGILNQPVTKQAIEQGDVPLPEQLFSHNSQTASWLRGGMDASTNLGWAGRMLDVLTSDAQITPLYSVHGDTLWLKAMEHRQTVLKKDKAVQLTAVGNPLYEEVYQKLLSQSADNPFSGHFNLMVDESMMMSNILAEQLKLIDDAPLFSSSTLGKQMQTVYKLIASQSALSQQRQVFFVKHTGYDLHDSQLARHPLLLEDLATNLNAMYRAVDKLGMSKNVTTFTMSDFGRRMTNNGNGTDHGWGGHQLLIGGAVNGSAPIGTWPELTLGGQDDYSKGRLIPAIAADQVGSTLAQWMGVSDNAALEYVFPNIRNFTTSNLGFMA”, for which the “soluble on expression in E. coli” value is recorded as “not soluble”.

As to “MGSDKIHHHHHHMEKIIITATAESIEQVKELLVAGVDRIYVGEADHALRIPTNFTYDELREIAELVHSAGKELTVAANALMHQDMMDNIKPFMELMREIKVDYLVVGDTGIFYINKRDGYNFKLIYDTSVFVTSSRQINFWKDHGAVEAVLAREIPSEELFDIAKNLEMPAEILVYGASVIHHSKRTLLQNYYNFTKADETDLSRGRGLFLAEPSDPDSHYSIFEDKHGTHIFINNDIDMMTKLSELDEHGYHNWKLDGIYCPGQNFVEIVKLFVQARDLIEKGEFTYDQAFLLDEQVRKLHPAERGLDTGFYEFDRNKVK”, the “soluble on expression in E. coli” value is “not soluble”.

Turning to “MSATTTLKEQVLTTLKREQANAVVMYLNYKKYHWLTYGPLFRDLHLLFEEQGSEVFAMIDELAERSLMLDGQPVADPADYLKVATVTPSSGQLTVKQMIEEAIANHELIITEMHQDAEIATEAGDIGTADLYTRLVQTHQKHRWFLKEFLAKGDGLVS”, the “soluble on expression in E. coli” value is on record as “soluble”.

With “RSGVLITDKPKKKDKKEEPAALQTTVQSMLISRPRELEAEVVRFQNNREKWIAFVGLKDGRPYEIFTGIADDDEGIMVPKSVTHGKIIKNRDENGERHYDFQFCNKKGFKVTIEGLDSKFNPEYWNYAKLISGVLRYGMPIEQVVHLVQGMSLNDESINTWKNGVERALKRYLPNGTTLSGQVCPSCGQETLVYQEGCLLCTSCGASKCG”, the “soluble on expression in E. coli” value was “not soluble”.

For “GMNQSIIFTEQLTWDVQLSAIHFTAQQQGMVIDCYIGQKVLEHLAAEKINNSEQALSLFEQFRFDIEEQAEKLIEQEAFDVQGHIQVERVD”, the “soluble on expression in E. coli” value is “soluble”.

On to “MGSDKIHHHHHHMTPTYDTLIIGAGIAGASLGYRLAGQQRVLLVERESQPGYHSTGRSAAMFMEAYGTPQIQALTRASRAFYEAPPQGFCEHPLLEPRGCLYVASLEQRELLEQTFAQNLANGTEVTLLDRDAALALIPSLRGETLAGAVLEPGAMDLDVHALHQGFLRGYRTAGGELRCNAELIQACYLDDVWQVELADGSRLQARCLVNAAGAWADRVAEQCGVARIGLQPCRRSAFTFPGPAEQDFTRWPAVIGVDESFYFKPDAGQLLGSPANADPVEPQDAAPEEFDVALGIYNIEAMTTLAIRRPSHTWAGLRSFVADGDLVIGFDAHAPAFFWLAAQGGYGIQSAAGASRLAADLLLGQPLCASLVSQGVAPERLSPARFQQP”, for which the “soluble on expression in E. coli” value is listed as “not soluble”.

For the sequence “MGSDKIHHHHHHMANALLQKWVERAERRALFWWQPKNGGVNMGDHLSKVIVSCVLALQDKTLLEKRDLRKKLIATGSVLHFAKDGDTVWGSGINGKIPAERNTFSTLDVRAVRGPKTRAFLLERGIAVPEVYGDPGLLTPMFFPADALGPVTKRPFAIVPHFNEPVEKYSAYAEHLVFPNVKPATFMSALLGAKFVISSSLHGLILAEAYGIPAVYLDWGNGEDRFKYDDYYHGTRRMQWHAGHSVEECMELGGNGSFDLERLQAGLLAAFPYDLW”, the “soluble on expression in E. coli” value is on record as “not soluble”.

“GPGSMYRLFSCCKTNELKRLFSHALDASIKNEGVAQQRKRQVLPRRHRKLHKLTIREENEEGLRDFLPPKPVVPAGWKLEHVKGSNRFDLRKSVEIRDCGKEHLHAVAMMEVKEYEGTYRMDNGEREEEEYLFFTLFVQKNRFPGALEFGLTSIDMELVMDSLAIHNNREELEDAYGALSVSTSRNGTSNRIIEKSNLSCRSCRDNRYRGPMLSELDDDFSDEILDYLDERGVNNGFAEYMMAQAHFFEQEEYINWIRLLRQFAQ”: the “soluble on expression in E. coli” value is “not soluble”.

With “MKINNGPVLCPHCGCLSAYYEIDRLAAIREKVNKEGGSAAWDSTLQAHKKKAFCLMCHKSIDEVVIGQSDAPESTK”, the “soluble on expression in E. coli” value was “not soluble”.

As to “MEPMRIGPRLSVAAVSHVGRRQNNEDFHRVLPLETPAGLLLLLAVADGMGGLEAGEWASKLAIEALSEAARGYAEHLQSGRPAVGLARVMEKGFLLARRRVEREAERPGRRGMGTTLTAFLYADWLKEGVVGHIGDSRAYRFGPTGVFRLTEDHSWVAERLKEGVLTRTEAERHPYRNVLTRALGLPEARFDLVEVRLAPGEGVLLVTDGLYGHVPEEEWRLGRDLQASLEAMVAEALRRGGDDNVTAVALRVE”, the “soluble on expression in E. coli” value is on record as “soluble”.

Source of the values: the DeepSol protein solubility set.
